Assay results from the DeepSol protein solubility set.

test: soluble on expression in E. coli; label from the status in PepcDB or PDB records

| Sequence | soluble on expression in E. coli |
| --- | --- |
| MEVEYDEGFDSSSLKNNPASLQRDYPTFMESNCSQMSVRQEFLPIFPQRLDLCQISPKKSEKKSKKKKIPSPIKKTNDTKLSILSEKSEIRSEKHKNKCKSADLDAMEKNFKELLENFSKNAALSNSLRDEASSIISSSASSQKSLFKEINLAKKLSASYSKKPEKTGEKSKNCTFSDSTFRLSSQNDSDSDDTRPPSSQASLAFEVEQARNMMMSSAKIPKPLSSSTPRKERRTTGTNSDSNKILANLKIFKPKCGNFDLFTRKVPENIRLSESQLVELYSNREPRNSKSDITIRQFFDEEDDADKTIVEQVFKDYHRSLEKETPIMRNSATDTSGSLHIERNRDGRSASMSNLISNSGNRTNLTVFDGFAPGALRHSISTVQMSPTKKKFDEFRIEHQEPGILPRFVIKTSLRPIFSPPLDIDEICGKGLRKDAESNLRHFGGKTISAQIHGSKPVQRRPTVPKASKTGSDRPTTASTAKIVEKPEIPVEIPQKLEISRKIAEKTLKLDDFPVKSSNFSNISNFQPRRPPYCSATSSDGSAHSLATVTQQLMGTVKLLHPDWLDMLRRLLNNALPRDDVTLLFKYQVLAEKDHLERKFRGNLSVEAEAADAHLEHFGRISTLNRVLDRLADLTNDGGHVSRIQQIKIIHNALFKD | not soluble |
| MKLKIDLNCDLGEAFGNYTFGGDQHILPLITSANIACGYHAGDEDVMNETVQLAKKNNISIGAHPGLPDLKGFGRRKMDLTPNEIYNLVIYQLGALSGFCKINHVKMMHVKPHGALYQMGARNKEIAHAIAQAVFDFDSNLIFVGLANTLLISEAELVGLKVASEVFADRRYEDDGQLVSRKKTDATITNTDEAIQQALKMVLENKVVSKNGKIIDLKADTICVHGDGKHALEFVTQIRNELMKEGIDIQSLLEHHHHHH | soluble |
| GPGSMALVHTTYPQCLSLVEADTAEAEVQQALEDGANTLYFSHHFNYTDVPPSIAALREQLEVLHIDNNYPFTTISPRVTALTNLRWLNASYCSLRSVDSSISRLSKLERLTLNNNMLTWLPLDVWQLKALEELHIDNNQLNVLPGCLLFLPRLRVLTLENNPLYTHEEVNGAAAATYIPVQCSVDCSACCIRSRNYKVFVTFHTIVGHSDVPFVHVVCSDECAVHVRSRLEAYDRAHANQP | soluble |
| AESSADKFKRQHMDTEGPSKSSPTYCNQMMKRQGMTKGSCKPVNTFVHEPLEDVQAICSQGQVTCKNGRNNCHKSSSTLRITDCRLKGSSKYPNCDYTTTDSQKHIIIACDGNPYVPVHFDASV | soluble |
| MTYAESTRSAVVYSSIVPPPRTPVGPPMLKDGVRKGSASQPLQPKNGANSLDYWSKSEDEKSGITCYYSRHNIQFPPPQRKMKPVKPNPVGRSTINGFTPSTSSPQNGLRYPPFPQNTPESVMSPPVGIYRNIPAMPRAKLTKDEKNGGKMNRDGGGENPKNVVWGGTSRKDDDTASTPLNSFSANASIEKKRSTARRKPRWARCFQTLFCCVTPPREIEKIQSSQRTNSTNNNHQNGRPSTPTNTGPPIQLITQVHRDGTVTGLPTTGQACQQNGSGDGVTPYDKIANDSVGTINEKPLLPPLLPQDSNKKCLVIDLDETLVHSSFKPVKNPDFVIPVEIDGVEHQVYVLKRPYVDEFLAKVGEHFECILFTASLAKYADPVADLLDKKRVFRGRLFREACVFHKGNYVKDLSRLGRNLNQTLIIDNSPASYAFHPENAVPVTTWFDDPSDTELLDILPSLEHLNGFSSIYDLYRPEEGPQSELLNHCSC | not soluble |
| MKPRNINNSLPLQPLVPDQENKNKKNEEKSVNPVKITMGSGLNYIEQESLGGKYLTHDLSIKIADISEEIIQQAILSAMSIYKFSITDDLMSMAVNELIKLTKIENNVDLNKFTTICTDVLSPRVTRHNKEKNKRHSTLLKNPLFNFHLEHHHHHH | soluble |
| GHMYQHHNWQGALLDYPVSKVVCVGSNYAKHIKEMGSAVPEEPVLFIKPETALCDLRQPLAIPSDFGSVHHEVELAVLIGATLRQATEEHVRKAIAGYGVALDLTLRDVQGKMKKAGQPWEKAKAFDNSCPLSGFIPAAEFTGDPQNTTLSLSVNGEQRQQGTTADMIHKIVPLIAYMSKFFTLKAGDVVLTGTPDGVGPLQSGDELTVTFDGHSLTTRVLGS | soluble |
| VKNILLLDSEGKRVAVKYYSDDWPTNAAKLSFEKYVFSKTSKTNARTEAEITLLDSNIIVYKFAQDLHFFVTGGENENELILASVLQGFFDAVALLLRSNVEKMEALENLDLIFLCLDEMVDQGVVL | not soluble |
